# Measurements: US20200308301A1 (Novartis, published 2020)
# Experiments:
# [1] = target: T1, NOV1401; assay: SPR (ProteOn XPR36), NOV1401 immobilized, Fab as analyte, 1:1 Langmuir fit, average
# T1 construct: It was amine-coupled to the chip in SPR, and used soluble and biotinylated in SET; also called anti-FXI/FXIa antibody NOV1401; anti-Factor XI/FXIa antibody NOV1401
# Method: SPR binding experiments were performed on a ProteOn XPR36 instrument (Bio-Rad Laboratories, Inc.) in PBS/T buffer (50 mM phosphate, 150 mM NaCl, pH 7.4, 0.005% v/v Tween-20) at 25° C. NOV1401 (‘Ligand’) was immobilized onto an activated ProteOn GLC sensor chip (Bio-Rad Laboratories, Inc.) using standard amine coupling procedures as described by the manufacturer. Briefly, NOV1401 was injected at a concentration of 10 μg/ml in 20 mM sodium acetate, pH 5.0 and at a flow rate of 30 μl/min for 10 min. Unreacted groups were blocked by injecting 1 M ethanolamine.
# For kinetic studies anti-NOV1401 Fabs (‘Analytes’) were diluted in PBS/T buffer to generate a dilution series with concentrations ranging from 0.125-4 nM. Fabs were injected onto surfaces with immobilized NOV1401 at a flow rate of 100 μL/min and sensorgrams were recorded for association and dissociation times of 220 s and 1800 s, respectively. Blank surfaces were used for background corrections. There was no need to regenerate surfaces since the ProteOn protein interaction array system allows to run up to six binding experiments on an identical surface in parallel.
# Data processing and analysis including kon, koff, and KD determination were performed with the ProteOn Manager™ software version 3.1.0.6.
# [2] = target: T1, NOV1401; assay: cell-based or functional assay
# [3] = target: T1, NOV1401; assay: cell-based or functional assay; remark: listed apart in the source
# [4] = target: T1, NOV1401; assay: Solution equilibrium titration (SET), 1:1 fit, average
# Method: 14 serial (2×) dilutions of NOV1401 were prepared in sample buffer (PBS pH 7.4 containing 0.5% (w/v) BSA and 0.02% Tween 20) and a constant concentration of the anti-NOV1401 Fab or IgG was added to each NOV1401 concentration ranging from 40 pM to 240 pM. Optimal constant anti-NOV1401 Fab or IgG concentrations and optimal starting concentrations for NOV1401 dilution series were determined in pilot experiments.
# After incubation and three times washing with PBST (PBS containing 0.05% Tween 20) 30 μl/well of the NOV1401/anti-NOV1401 Fab or IgG preparation was transferred from the polypropylene MTP to the NOV1401-coated SA plate and incubated for 30 min at RT on a MTP shaker. After three additional wash steps, 30 μl of 0.5 μg/ml detection antibody (Goat anti-human Kappa LC-HRP, BETHYL # A80-115P) diluted in sample buffer was added to each well and incubated for 1 h at RT with shaking. After washing the plate again three times, 30 μl of detection reagent (LumiGLO Peroxidase Chemiluminescent Substrate, KPL #54-61-01) was added to each well. Electrochemiluminescence (ECL) signals were generated and detected immediately with a luminescence imager (SpectraMax M5, Molecular Devices, LLC).
# Average ECL-signals were calculated from duplicate measurements within each assay. Data were baseline adjusted by subtracting the lowest value from all data points and plotted against the corresponding antigen concentration. KD values were determined by fitting the plot with the following non-linear curve fitting model for 1:1 binding according to Haenel et al 2005: […]
Binder,Kd [1] [pM],"TGA percentage reversal, NOV1401/anti NOV1401 ratio 1/1 (n/n) [2] [%]","TGA percentage reversal, NOV1401/anti NOV1401 ratio 1/3 (n/n) [2] [%]","TGA percentage reversal, NOV1401/anti NOV1401 ratio 1/10 (n/n) [2] [%]","aPTT percentage reversal, NOV1401/anti NOV1401 ratio 1/1 (n/n) [3] [%]","aPTT percentage reversal, NOV1401/anti NOV1401 ratio 1/3 (n/n) [3] [%]","aPTT percentage reversal, NOV1401/anti NOV1401 ratio 1/10 (n/n) [3] [%]",Kd [4] [pM]
"IDT6 (Fab, V domains shown, Fab with a lambda light chain; also called anti-NOV1401 Fab IDT6) VH: QVQLVQSGAEVKKPGESLKISCKGSGYSFTNYWIGWVRQMPGKGLEWMGIIFPGVSYTKYSPSFQGQVTISADKSISTAYLQWSSLKASDTAMYYCARGSDQTLRGSRAMDYWGQGTLVTVSS VL: QSALTQPASVSGSPGQSITISCTGTSSDVGISNYVSWYQQHPGKAPKLMIYEVSNRPSGVSNRFSGSKSGNTASLTISGLQAEDEADYYCQSYTSLNYVFGGGTKLTVLG",10100,18,41,37,9,22,38,
"IDT2 (Fab, V domains shown, Fab; also called anti-NOV1401 Fab IDT2) VH: QVQLVESGGGLVKPGGSLRLSCAASGFTFSSAAVHWVRQAPGKGLEWVGRIKSKADGGTTDYAAPVKGRFTISRDDSKNTLYLQMNSLKTEDTAVYYCARDSPSISSYSIPYFSGMDVWGQGTLVTVSS VL: DIQMTQSPSSLSASVGDRVTITCRASQGIRAWLNWYQQKPGKAPKLLIYAASSLQSGVPSRFSGSGSGTDFTLTISSLQPEDFATYYCHQYITHPPTFGQGTKVEIKR",230,55,57,61,21,42,55,100
"IDT9 (Fab, V domains shown, Fab; also called anti-NOV1401 Fab IDT9) VH: QVQLVQSGAEVKKPGASVKVSCKASGYTFTNYYVHWVRQAPGQGLEWMGWINPYNGNTNYAQKFQGRVTMTRDTSISTAYMELSRLRSEDTAVYYCARGASSIRMSYYLDVWGQGTLVTVSS VL: DIQMTQSPSSLSASVGDRVTITCRASQSISNYLNWYQQKPGKAPKLLIYAASNLQSGVPSRFSGSGSGTDFTLTISSLQPEDFATYYCFQYTHSPATFGQGTKVEIKR",1920,41,61,72,10,25,46,680

# Further lines, results first:
Kd [1] [pM],"TGA percentage reversal, NOV1401/anti NOV1401 ratio 1/1 (n/n) [2] [%]","TGA percentage reversal, NOV1401/anti NOV1401 ratio 1/3 (n/n) [2] [%]","TGA percentage reversal, NOV1401/anti NOV1401 ratio 1/10 (n/n) [2] [%]","aPTT percentage reversal, NOV1401/anti NOV1401 ratio 1/1 (n/n) [3] [%]","aPTT percentage reversal, NOV1401/anti NOV1401 ratio 1/3 (n/n) [3] [%]","aPTT percentage reversal, NOV1401/anti NOV1401 ratio 1/10 (n/n) [3] [%]",Kd [4] [pM],Binder
350,55,56,72,17,42,56,140,"IDT5 (Fab, V domains shown, Fab; also called anti-NOV1401 Fab IDT5) VH: QVQLVESGGGLVKPGGSLRLSCAASGFTFSSAAVHWVRQAPGKGLEWVGRIKSKADAGTTDYAAPVKGRFTISRDDSKNTLYLQMNSLKTEDTAVYYCARDSPSISSYSIPYFSGMDVWGQGTLVTVSS VL: DIQMTQSPSSLSASVGDRVTITCRASQGIRAWLNWYQQKPGKAPKLLIYAASSLQSGVPSRFSGSGSGTDFTLTISSLQPEDFATYYCHQYITHPPTFGQGTKVEIKR"
310,33,53,60,10,27,39,970,"IDT4 (Fab, V domains shown, Fab; also called anti-NOV1401 Fab IDT4) VH: QVQLVESGGGLVKPGGSLRLSCAASGFTFSSAAVHWVRQAPGKGLEWVGRIKSKASGGTTDYAAPVKGRFTISRDDSKNTLYLQMNSLKTEDTAVYYCARDSPSISSYSIPYFSGMDVWGQGTLVTVSS VL: DIQMTQSPSSLSASVGDRVTITCRASQGIRAWLNWYQQKPGKAPKLLIYAASSLQSGVPSRFSGSGSGTDFTLTISSLQPEDFATYYCHQYITHPPTFGQGTKVEIKR"
